Experiments:
[1] = target: recombinant human GPC3 protein (human) (UniProt P51654); test: ELISA on plate-coated human GPC3, OD 450 nm
[2] = target: GPC3 expressed endogenously on HepG2 and Hep3B human hepatoma cells (human) (UniProt P51654); test: flow cytometry on HepG2 cells (endogenous GPC3), MFI
[3] = target: GPC3 expressed endogenously on HepG2 and Hep3B human hepatoma cells (human) (UniProt P51654); test: flow cytometry on Hep3B cells (endogenous GPC3), MFI
[4] = target: T1, GPC3 expressed endogenously on HepG2 and Hep3B human hepatoma cells (human, UniProt P51654 25-554); test: flow cytometry on HepG2 cells (endogenous GPC3), MFI
T1 construct: Endogenous GPC3 of human hepatoma lines; also called HepG2 cells; Hep3B cells
T1 sequence (P51654 other isoform, or with tags, fused parts or gaps limits assumed, form in doubt): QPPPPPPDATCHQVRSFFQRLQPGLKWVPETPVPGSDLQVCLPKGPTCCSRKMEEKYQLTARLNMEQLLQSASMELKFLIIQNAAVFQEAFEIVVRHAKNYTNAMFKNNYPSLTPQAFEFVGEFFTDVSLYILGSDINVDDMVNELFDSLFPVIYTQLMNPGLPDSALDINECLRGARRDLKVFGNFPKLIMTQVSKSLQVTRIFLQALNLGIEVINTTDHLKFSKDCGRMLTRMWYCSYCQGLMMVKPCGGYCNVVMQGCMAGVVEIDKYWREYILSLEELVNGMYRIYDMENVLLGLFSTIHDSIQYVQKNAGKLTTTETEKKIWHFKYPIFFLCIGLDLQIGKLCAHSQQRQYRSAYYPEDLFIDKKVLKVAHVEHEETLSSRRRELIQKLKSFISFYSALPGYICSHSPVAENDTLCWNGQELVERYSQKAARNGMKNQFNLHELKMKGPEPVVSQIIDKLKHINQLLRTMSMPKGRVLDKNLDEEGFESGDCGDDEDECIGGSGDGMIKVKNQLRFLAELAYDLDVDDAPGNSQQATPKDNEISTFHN

Sequence of GPC3 expressed endogenously on HepG2 and Hep3B human hepatoma cells (human) (P51654 other isoform, or with tags, fused parts or gaps limits assumed, form in doubt): as above
Sequence of recombinant human GPC3 protein (human) (P51654 other isoform, or with tags, fused parts or gaps limits assumed, form in doubt): as above

| EC50 (read off the curve) [1] | EC50 (read off the curve) [2] | EC50 (read off the curve) [3] | EC50 (read off the curve) [4] | Molecule |
| --- | --- | --- | --- | --- |
| 0.02 µg/mL | 2 nM | 2 nM | – | HN3 VHH-Fc (Fc fusion) |
| – | – | – | ~0.3 nM | 1B01 llama-human chimeric bivalent VHH-Fc (Fc fusion, expressed in ExpiCHO; also called Clone 1B01; 1B01 llama VHH fused to human IgG1 Fc; not shown: human IgG1 Fc fused to the C-terminal of the VHH) QVQLQESGGGLVQAGGSLRLSCAAVGLPFSNYAMGWFRQAPGEEREFVSAVSANGGNEYYADSVKDRFTISRDNAKNTVYLRMLSLKLEDTAIYYCATVRRRGGTFTVGSYRGQGTQVTVSS |

— US20240043558A1 (SHANGHAI HENLIUS BIOTECH, published 2024)
